Reference: patent US20250235545A1, “POLYPEPTIDE CONJUGATE AND USE THEREOF” (SHANGHAI CHIXI BIOMEDICAL TECHNOLOGY CO., LTD, priority 2024, published 2025)
≈ marks a conversion by molar mass, not a printed value. Where two headings read alike, the source gives them in different places. Where a SMILES comes first, the peptide text is derived from it. The star is where a group is joined. Belotecan = CC[C@@]1(O)C(=O)OCc2c1cc1n(c2=O)Cc2c-1nc1ccccc1c2CCN(C(C)C)*; X8 = CC[C@@]1(O)C(=O)OCc2c1cc1n(c2=O)Cc2c-1nc1ccccc1c2CCN(C1CCCC1)*; X7 = CC[C@@]1(O)C(=O)OCc2c1cc1n(c2=O)Cc2c-1nc1ccccc1c2CCN(C)*; Propanoyl(3-maleimido) = O=C1C=CC(=O)N1CCC(=O)*; PEG6 = NCCOCCOCCOCCOCCOCCOCCC(=O)O

Tests used:
[1] = Tumor homogenate activation efficiency, breast cancer tissue (Examples 28, 37); assay type: in vitro ADME; conditions: pH 5.0, 37° C., 2 h; Table 10
Outline: (§1)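 Conjugate at 1 mg/ml in pH 5.0 buffer (50 mM MES, 250 mM NaCl) incubated with 100 μg tissue homogenate at 37° C. for 2 h. HPLC read-out; release % = Belotecan peak area over total area of Belotecan plus all Belotecan-containing species.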

[2] = tested on: colo320 colorectal cancer tumor model
Outline: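 Dosing was once a week for four weeks, with saline as control, in randomized groups of three mice. Groups were formed after subcutaneous colo320 xenografts (7.5×10^6 cells, right chest) grew to ≥120 mm^3 in female 6–8-week-old BALB/c nude mice.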

[3] = Tumor homogenate activation efficiency, non-small cell lung cancer tissue (Examples 28, 37); assay type: in vitro ADME; conditions: pH 5.0, 37° C., 2 h; Table 10
Outline: as §1

[4] = Tumor homogenate activation efficiency, sarcoma tissue (Examples 28, 37); assay type: in vitro ADME; conditions: pH 5.0, 37° C., 2 h; Table 10
Outline: as §1

[5] = Tumor homogenate activation efficiency, colorectal cancer tissue (Example 37); assay type: in vitro ADME; conditions: pH 5.0, 37° C., 2 h; Table 10
Procedure: Buffer preparation: 50 mM PH buffer (MES), 250 mM NaCl, pH adjusted to 5.0 with 0.5 M of sodium hydroxide.
The polypeptide conjugate was prepared into a 1 mg/ml solution with pH 5.0 buffer, 100 μg of tumor tissue homogenate was added, (the tumor tissue homogenate was the homogenate of tumor tissues prepared with a Jingxin F6/10 handheld homogenizer), and the solution was placed at 37° C. for 2 h. The tumor tissue homogenate could effectively activate the polypeptide conjugate and release Belotecan, and the activation efficiencies of the drugs in tumor tissues were compared by HPLC allowing determination of a decrease in the compounds and an increase in Belotecan:
Release percentage=peak area of Belotecan/total peak area of Belotecan and all other Belotecan-containing compounds

[6] = tested on: sarcoma SJSA-1 tumor model; conditions: Table 7
Outline: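 Female BALB/c nude mice (6-8 weeks) bearing subcutaneous right-chest SJSA-1 xenografts from 2×10^7 cells were randomized, three per group, once tumors reached at least 100 mm^3. Treatment given once a week for three weeks starting day 1; saline controls.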

[7] = Homogenate activation efficiency, heart tissue (Examples 28, 37); assay type: in vitro ADME; conditions: pH 5.0, 37° C., 2 h; Table 10
[8] = Tumor homogenate activation efficiency, ovarian cancer tissue (Examples 28, 37); assay type: in vitro ADME; conditions: pH 5.0, 37° C., 2 h; Table 10
Outline: as §1

SJSA-1 (sarcoma tissue) = experiment: cells; assay type: cell-based; conditions: CCK8, 48 h; Table 6
Outline: (§2)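 CCK8 absorbance at 450 nm, read after roughly 2 h of staining, gave cell survival rates from which IC50 values were derived. Beforehand, 5,000 cells/well were exposed for 48 h at 37° C to serial drug dilutions (triplicate wells; 0.1% DMSO vehicle control; cell-free blanks).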

A2780 (ovarian cancer) = experiment: cells; assay type: cell-based; conditions: CCK8, 48 h; Table 6
Outline: as §2

[9] = tested on: A549 (non-small cell lung cancer); experiment: cells; assay type: cell-based; conditions: CCK8, 48 h; Table 6
Outline: as §2

[10] = tested on: SKBR3 (breast cancer tissue); experiment: cells; assay type: cell-based; conditions: CCK8, 48 h; Table 6
Outline: as §2

[11] = tested on: colo320 (colorectal cancer tissue); experiment: cells; assay type: cell-based; conditions: CCK8, 48 h; Table 6
Procedure: Different types of cells were cultured with complete media (RPMI1640 (DMEM high sugar medium)+10% fetal bovine serum+1×P/S+sodium pyruvate 1 mM solution) in an incubator at 37° C. and 5% CO2 until the cells grew to a sufficient number, and the cells were collected, centrifuged at 1,000 g for 5 min, resuspended with an appropriate volume of a 10% RMPI1640 (DMEM high sugar medium) medium and adjusted to an appropriate density. In a 96-well culture plate, 100 μL of cell culture fluid containing different concentrations of drugs was added, control wells (0.1% DMSO) with only corresponding drug solvents without drugs, as well as blank wells (Blank) with only the medium but without cells were set, and three parallel wells were set in each group. After that, the cells after cell counting were inoculated onto 96-well culture plates, with 100 μL of cell suspension per well, and an inoculation concentration of the cells was 5,000 cells (100 μL)/well. The plates were then cultured in a CO2 (5%) incubator at 37° C. for 48 h. After 48 h, 10 μL of a cell proliferation staining reagent (CCK8) was added to each well, the plates were incubated in a cell incubator for around 2 h, and an absorbance at 450 nm was detected.
Cell survival rates and median inhibitory concentrations (IC50) of the drugs on the cells were calculated.

[12] = MTD determination in mice (Examples 27, 36, 44); assay type: in vivo; conditions: female, mouse, in vivo; mice, monitored for 14 d; Table 9
Source text: Test animals: 6-8 weeks old mice, all female; mice were grouped randomly, with six mice in each group, administered with drugs at different concentration gradients separately and monitored for 14 d. A mouse was euthanized at a loss of 20% of its initial weight and deemed to have died of poisoning.

[13] = 15 mg/kg once a week for four weeks, Table 8
[14] = 45 mg/kg once a week for four weeks, Table 8
[15] = 45 mg/kg once a week for three weeks
[16] = Table 13 (Example 42), dose 45 mg/kg, once a week for four weeks, BALB/c mice
[17] = Table 14 (Example 43), dose 45 mg/kg, once a week for four weeks, BALB/c mice
[18] = 15 mg/kg once a week for three weeks

Row | SMILES | Percentage of release efficiency (%) Breast cancer tissue (SKBR3) [1] [%] | Mouse weight (%) [2, 13] | Mouse weight (%) [2, 14] | Percentage of release efficiency (%) Non-small cell lung cancer tissue (A549) [3] [%] | Percentage of release efficiency (%) Sarcoma tissue (SJSA1) [4] [%] | Percentage of release efficiency (%) Colorectal cancer tissue (colo320) [5] [%] | Mouse weight (%) [6, 15] | Percentage of release efficiency (%) Heart tissue [7] [%] | Percentage of release efficiency (%) Ovarian cancer tissue (A2780) [8] [%] | IC50 Sarcoma tissue (SJSA-1) (SJSA-1 (sarcoma tissue)) [µg/mL] | IC50 Ovarian cancer tissue (A2780) (A2780 (ovarian cancer)) [µg/mL] | IC50 Non-small cell lung cancer tissue (A549) [9] [µg/mL] | IC50 Breast cancer tissue (SKBR3) [10] [µg/mL] | IC50 Colorectal cancer tissue (colo320) [11] [µg/mL] | MTD at 14 d [12] [mg/kg] | colo320 (colorectal cancer cell) growth rate (%) [2, 14] [%] | colo320 (colorectal cancer cell) mean tumor volume (mm^3) [2, 14] [mm^3] | Mouse weight (%) [2, 16] | colo320 (colorectal cancer cell) growth rate (%) [2, 16] [%] | colo320 (colorectal cancer cell) mean tumor volume (mm^3) [2, 16] [mm^3] | other results
1 | CC[C@@]1(O)C(=O)OCc2c1cc1n(c2=O)Cc2c-1nc1ccccc1c2CCN(C(=O)[C@H](CC(C)C)NC(=O)[C@H](CC(N)=O)NC(=O)[C@H](C)NC(=O)[C@H](C)NC(=O)CCOCCOCCOCCOCCOCCOCCNC(=O)CCN1C(=O)C=CC1=O)C1CCCC1 [MI-6PEG-AANL-D8] ({Propanoyl(3-maleimido)-PEG6}-AANL-X8) | 70.2 | +33% | +15% | 68.4 | 81.1 | 78.9 | +17% | 2.2 | 71 | 1.54 (≈ 1.17 µM) | 1.27 (≈ 0.965 µM) | 2.27 (≈ 1.73 µM) | 1.98 (≈ 1.51 µM) | 2.97 (≈ 2.26 µM) | 200 |  |  |  |  |  | 
2 | CC[C@@]1(O)C(=O)OCc2c1cc1n(c2=O)Cc2c-1nc1ccccc1c2CCN(C(=O)[C@H](CC(C)C)NC(=O)[C@H](Cc1ccccc1)NC(=O)CNC(=O)CNC(=O)CCOCCOCCOCCOCCOCCOCCNC(=O)CCN1C(=O)C=CC1=O)C(C)C [MI-6PEG-GGFL-Belotecan] ({Propanoyl(3-maleimido)-PEG6}-GGFL-Belotecan) | 73.2 | +27% | +5% | 77.3 | 68 | 83.1 | +22% | 1.8 | 73.6 | 1.24 (≈ 0.958 µM) | 1.91 (≈ 1.48 µM) | 2.21 (≈ 1.71 µM) | 3.69 (≈ 2.85 µM) | 2.86 (≈ 2.21 µM) | 100 | 671.56 | 789.4 | +5% | 671.56 | 789.4 | colo320 (colorectal cancer cell) growth rate (%) [2, 13]: 994.05%; colo320 (colorectal cancer cell) mean tumor volume (mm^3) [2, 13]: 1254.2 mm^3; Mouse weight (%) [2, 17]: +5%; colo320 (colorectal cancer cell) growth rate (%) [2, 17]: 671.56%; colo320 (colorectal cancer cell) mean tumor volume (mm^3) [2, 17]: 789.4 mm^3; Mouse weight (%) [6, 18]: +27%; SJSA-1 (sarcoma tissue) growth rate (%) [6, 18]: 1134.95%; SJSA-1 (sarcoma tissue) mean tumor volume (mm^3) [6, 18]: 1278.6 mm^3; SJSA-1 (sarcoma tissue) growth rate (%) [6, 15]: 995.32%; SJSA-1 (sarcoma tissue) mean tumor volume (mm^3) [6, 15]: 1254.1 mm^3
3 | CC[C@@]1(O)C(=O)OCc2c1cc1n(c2=O)Cc2c-1nc1ccccc1c2CCN(C)C(=O)[C@H](CC(C)C)NC(=O)[C@H](Cc1ccccc1)NC(=O)CNC(=O)CNC(=O)CCOCCOCCOCCOCCOCCOCCNC(=O)CCN1C(=O)C=CC1=O [MI-6PEG-GGFL-D1] ({Propanoyl(3-maleimido)-PEG6}-GGFL-X7) | 69.5 |  | +19% | 82.5 | 73.5 | 86.7 | +11% | 1.4 | 80 |  |  |  |  |  | 120 | 766.16 | 900.6 | +19% | 766.16 | 900.6 | Mouse weight (%) [2, 17]: +19%; colo320 (colorectal cancer cell) growth rate (%) [2, 17]: 766.16%; colo320 (colorectal cancer cell) mean tumor volume (mm^3) [2, 17]: 900.6 mm^3; SJSA-1 (sarcoma tissue) growth rate (%) [6, 15]: 1181.64%; SJSA-1 (sarcoma tissue) mean tumor volume (mm^3) [6, 15]: 1485.2 mm^3
